The record followed here is patent US20060003330A1, “Streptococcus pneumoniae pbp2x mini-protein and uses thereof” (COMMISSARIAT A L'ENERGIE ATOMIQUE CENTRE NATIONAL DE LA …, priority 2002, published 2006).

The data set can be described thus: Solubility of purified mini-PBP2x (concentration without precipitating). Type of data set: physicochemical. The settings on record: purified protein.

B1: Mini-PBP2x: Modified recombinant protein derived from PBP2x of β-lactam-sensitive S. pneumoniae strain R6, with deletions in the n-PB domain replaced by Gly linkers (protein, listed as Streptococcus pneumoniae)
chain: GSGAKRGTIYDRNGVPIAEDATSGGPNRSYPNGQFASSFIGGGMESSLNSILAGGGGDGKDVYTTISSPLQSFMETQMDAFQEKVKGKYMTATLVSAKTGEILATTQRPTFDADTKEGITEDFVWRDILYQSNYEPGSTMKVMMLAAAIDNNTFPGGEVFNSSELKIADATIRDWDVNEGLTGGRTMTFSQGFAHSSNVGMTLLEQKMGDATWLDYLNRFKFGVPTRFGLTDEYAGQLPADNIVNIAQSSFGQGISVTQTQMIRAFTAIANDGVMLEPKFISAIYDPNDQTARKSQKEIVGNPVSKDAASLTRTNMVLVGTDPVYGTMYNHSTGKPTVTVPGQNVALKSGTAQIADEKNGGYLVGLTDYIFSAVSMSPAENPDFILYVTVQQPEHYSGIQLGEFANPILERASAMKDSLNLQTTAKALEQVSQQSPYPMPSVKDISPGDLAEELRRNLVQPIVVGTGTKIKNSSAEEGKNLAPNQQVLILSDKAEEVPDMYGWTKETAETLAKWLNIELEFQGSGSTVQKQDVRANTAIKDIKKITLTLGD
For the molecule B1, the “solubility (can be concentrated without precipitating)” value was at least 15 mg/mL.
